The text below walks through data of the supplement of paper PMC10724198.

± gives the standard deviation of the averaged measurements.

In series [1] the test system is Saccharomyces cerevisiae. Description: protein stability index of tFT-peptide fusion (C-terminal peptide) (PSI (0-1 scale)); higher = more stable (slower turnover). To be noted: genetic background: wild type; temperature: 30 C.
Series [2] relates to Saccharomyces cerevisiae. The description is as above. On the procedure:
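MPS profiling in S. cerevisiae of the tFT-X12 degron library: putative degron peptides plus stable controls, 12 aa, fused to the C-terminus of a sfGFP-mCherry timer. Cells are FACS-sorted into 8 mCherry/sfGFP bins and deep-sequenced. PSI runs from 0 (unstable) to 1 (stable). Backgrounds are wild type, das1Δ and doa10Δ at 30 °C, and wild type, das1Δ, cdc34-1 and cdc53-1 at 37 °C; 2-3 technical replicates each.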

Setting [3] is: genetic background: cdc34-1, temperature: 37 C.
Setting [4] is: genetic background: cdc53-1, temperature: 37 C.
Setting [5] is: genetic background: das1 deletion, temperature: 30 C.
Where [6] appears, read: genetic background: das1 deletion, temperature: 37 C.
Setting [7] is: genetic background: doa10 deletion, temperature: 30 C.
Where [8] appears, read: genetic background: wild type, temperature: 30 C.
Where [9] appears, read: genetic background: wild type, temperature: 37 C.
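Also: PSI is a weighted mean of sequencing reads over stability bins, variants kept only with over 10 reads, mCherry proximal and sfGFP distal, peptide attached via GGGS linker.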

Turning to FFSFTVLVSYGF, the protein stability index in series [1] is 0.352 ± 0.017; in series [2] (setting [3]), 0.18 ± 0.011; in series [2] (setting [4]), 0.256 ± 0.015; in series [2] (setting [5]), 0.192 ± 0.025; in series [2] (setting [6]) it was 0.34 ± 0.0067; in series [2] (setting [7]), 0.186 ± 0.0095. The protein stability index was 0.187 ± 0.023 in series [2] (setting [8]) and 0.284 ± 0.0081 in series [2] (setting [9]).

On to FFSLMFVFLTVF, for which the protein stability index was found to be 0.278 ± 0.033 in series [1]; 0.113 ± 0.018 in series [2] (setting [3]); 0.131 ± 0.043 in series [2] (setting [4]); 0.201 ± 0.03 in series [2] (setting [5]); 0.276 ± 0.015 in series [2] (setting [6]); 0.192 ± 0.0063 in series [2] (setting [7]). The protein stability index turned out to be 0.164 ± 0.02 in series [2] (setting [8]) and 0.23 ± 0.012 in series [2] (setting [9]).

FFSLRRAVTVSA: the protein stability index was 0.349 ± 0.069 in series [1]; 0.208 ± 0.013 in series [2] (setting [3]); 0.217 ± 0.0034 in series [2] (setting [4]); 0.212 ± 0.028 in series [2] (setting [5]); 0.372 ± 0.0052 in series [2] (setting [6]); 0.168 ± 0.0042 in series [2] (setting [7]). Further, the protein stability index in series [2] (setting [8]) worked out at 0.2 ± 0.029; in series [2] (setting [9]) it was 0.3273 ± 0.002.

With FFSPFFFFLFRL, the protein stability index in series [1] stood at 0.414 ± 0.058; in series [2] (setting [3]), 0.306 ± 0.11; in series [2] (setting [4]), 0.309 ± 0.0057; in series [2] (setting [5]), 0.366 ± 0.035; in series [2] (setting [6]), 0.453 ± 0.0074; in series [2] (setting [7]), 0.483 ± 0.019. Also, the protein stability index stood at 0.351 ± 0.0064 in series [2] (setting [8]) and 0.3971 ± 0.0026 in series [2] (setting [9]).

With FFVISVVLCLLV, the protein stability index in series [1] is 0.43 ± 0.0088; in series [2] (setting [3]), 0.377 ± 0.015; in series [2] (setting [4]), 0.48 ± 0.016; in series [2] (setting [5]), 0.341 ± 0.022; in series [2] (setting [6]) it was 0.447 ± 0.022; in series [2] (setting [7]) it was 0.325 ± 0.0033. In addition, the protein stability index came out at 0.344 ± 0.019 in series [2] (setting [8]) and 0.434 ± 0.015 in series [2] (setting [9]).

For the sequence FFVRSWWVELLF, the protein stability index came to 0.424 ± 0.0097 in series [1]; 0.642 ± 0.029 in series [2] (setting [3]); 0.719 ± 0.017 in series [2] (setting [4]); 0.558 ± 0.026 in series [2] (setting [5]); 0.682 ± 0.024 in series [2] (setting [6]); 0.296 ± 0.0038 in series [2] (setting [7]). The figures for the protein stability index in series [2] (setting [8]) and in series [2] (setting [9]) were 0.335 ± 0.031 and 0.5502 ± 0.0055, respectively.

For the sequence FFYRFQDLPRIC, the protein stability index in series [1] amounted to 0.397 ± 0.074; in series [2] (setting [3]), 0.681 ± 0.018; in series [2] (setting [4]), 0.743 ± 0.037; in series [2] (setting [5]) it was 0.651 ± 0.015; in series [2] (setting [6]), 0.7358 ± 0.0068; in series [2] (setting [7]), 0.191 ± 0.018. The protein stability index turned out to be 0.231 ± 0.035 in series [2] (setting [8]) and 0.537 ± 0.033 in series [2] (setting [9]).

Regarding FGFFLFIFFFFR, the protein stability index was 0.402 ± 0.12 in series [1]; 0.246 ± 0.044 in series [2] (setting [3]); 0.295 ± 0.027 in series [2] (setting [4]); 0.301 ± 0.032 in series [2] (setting [5]); 0.429 ± 0.015 in series [2] (setting [6]); 0.333 ± 0.0034 in series [2] (setting [7]). In addition, the protein stability index in series [2] (setting [8]) is 0.276 ± 0.039; in series [2] (setting [9]), 0.349 ± 0.031.

Turning to FGFFRLVIVCFR, the protein stability index in series [1] stood at 0.31 ± 0.16; in series [2] (setting [3]), 0.135 ± 0.046; in series [2] (setting [4]), 0.19 ± 0.021; in series [2] (setting [5]) it was 0.175 ± 0.032; in series [2] (setting [6]) it was 0.313 ± 0.0089; in series [2] (setting [7]), 0.176 ± 0.017. The protein stability index in series [2] (setting [8]) is 0.172 ± 0.019; in series [2] (setting [9]), 0.283 ± 0.013.

Take FGFWGVVSCCNA: the protein stability index is 0.63 ± 0.18 in series [1]; 0.559 ± 0.045 in series [2] (setting [3]); 0.566 ± 0.03 in series [2] (setting [4]); 0.472 ± 0.02 in series [2] (setting [5]); 0.599 ± 0.0011 in series [2] (setting [6]); 0.459 ± 0.01 in series [2] (setting [7]). Besides, the protein stability index in series [2] (setting [8]) stood at 0.477 ± 0.011; in series [2] (setting [9]), 0.5833 ± 0.0054.
